In the nanobody polyreactivity screen of Harvey et al. (2022):

Experiment: yeast display, Sf9 membrane polyspecificity reagent, FACS + sequencing; frameworks hold sequencing errors
Method in brief: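 After 36–48 hours of galactose induction, yeast (Saccharomyces cerevisiae BJ5465) displaying a synthetic nanobody library were stained at 4 °C for 1 hour with 10% biotinylated, detergent-solubilized Sf9 membrane reagent. Streptavidin microbeads enriched the stained cells before FACS sorting into low and high (top ~1%) gates on anti-HA and streptavidin fluorescence. Each clone's polyreactivity label reflects its gate of origin.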

| Sequence | polyreactivity (PSR sort gate) |
| --- | --- |
| QVQQVESGGGLVQAGGSLRLSSAASGITFRYYAMGWYRQAPGKERELVAAISSTGGSSYYADSVKGRFTISRDNAKNTVYLQMNSLKPEDTAVYYCNTQYNSQYDYWGQGTQVTVSS | high polyreactivity |
| QVQLQESGGGLVQAGGSLLSCAASGPISYYREMGWYRQAPGKERELVAGFGVGTITYYADSVKGRFTISRDNAKNTVYLQMNSLKPEVTAVYYCAAHIDGNDSHAYWGQGTQVTVIS | low polyreactivity |
| QVQLGESGGGLVQAGGSLRLSCAASGGTFYYYAMGWYRHAPGKERELVATISYSGASTYYADSVKGRFTISRDNAKNTVYLQRNSLKPEDTAVYYCNARPYNHRYRAWMDYWGQGTQVTVSS | high polyreactivity |
| QVHLVESVGGLLQAGGSLPLSCPASGSTFYDYAMGWYRPAPGKERELVASITTGGDSTYYADSVKGRFTISRDNAKNSVYLQMKSLIPEDSAVYYFNADWYYWFSNYQGAPEMDYWGQGTQVSVSS | high polyreactivity |
| QVQLVESGGGLVQAGGSLRLSCAASGRIFHTYGMGWYRQAPGKERELVAAITWTGGSTYYADSVKGRFTISRDNAKNTVYLQMNSLKPEDTAVYYCAADYPRDIIGSMDYWGQGTQVTVSS | low polyreactivity |
| QVQLVESAGGLVQAGGSLRLSCAASGRTFVGNAMGWYRQAPGTERELVADITWSGDITYYADSVKGRFTISRDNAKNTVYLQMNSLKPDDTAVYYCAADYHRRRTDYDYWGQGTQVTESS | low polyreactivity |
| QVQLVESGGGLVHAGGSLGLSCAASGSIFYEYVMGWYRQAPGKERELVATIDLNGGSTTYADSVKGRFTISRDNAKNTDYLQMNSLKPEDTAVYYCAAQTGFVSHFFWHYDYWGQGSQVTVSS | low polyreactivity |
| QVQLVESGGGLVQAGGSLRLSCAASGYNFVKNAMGWYRQAPGKERELVAAISTRGGRTYYADSVKGRFTISRDNAKNTVYLQMNSLKPEDTAVYYCAAVHQTSYYDANSYGYWGQGTQVTVSS | high polyreactivity |
| QVQLVESGGGLVQAGGSLRLTCAASGRIFSRNTMGWYRQAPGKERELVATISWSGSRTYYADSVKGRFTISRDNAKNTVYLQMNSLKPEDTAVYYCAAVVPLSRSYDYYYWGQGTQVTVSS | high polyreactivity |
| QVQLVESGGGLVQAGGSLRLSCAASGRTFRRNAMGWYRQAPGKERELVADISNGDSTKYADSVKGRFTISRDNAKNTVYLHMNRLKPVDTAVYYCNAQRYRVVVYNSHGWQTRNYWGQGTQVTVSS | low polyreactivity |
| QVQLVESGGGLVQAGGSLRLSCAASGITFVPYAMGWDRQAPGKERELVAAISSSGGSTYYADSVKGRFTISRDNAKNTVYLQMNSLKPEDTAVYYCNVRTHSYIGMDYWGQGTQVTVSS | low polyreactivity |
| QVQLVESGGGLVQAGGSLRLSCAASGSTFTWYGKGWYRQAPGKERELVAAISGSGGRTYYADSVKGRFTISRDNAKNTVYLQMNSLKPEDTAVYYCNADPANPFGTEFEYWGQGTQVTVSS | high polyreactivity |
| QVQLVESGGGLVQAGGSLRLSCAASGFIFADYDMGWYRQAPGKERELVAAISWSGGTTYYADSVKGRFTISRDNAKNTVYLQMNSLKPEDTAVYYCAAYWWAVYSVVTGARYDYWGQGTQVTVSS | high polyreactivity |
| QVQLVESGGGLVQAGGSLRLSCAASGLTFYYYAMGWYRQAPGKERELVATISSGGNTNYADSVKGRFTISRDNAMNTVYLQMNSLKPEDTAVYYCNADRWFHYYRYNYWGQGTQVTVSS | high polyreactivity |
| QVQLVESGGGLVQAGGSLSLSSAASGRPFIRNAMGWSRQAAGKERELVAGINSGGITNYADSVKGRFTISRDNAKNTVYLQMNSLKPVDTAFYYCNARQVLYGLYLRAYPYEYWGQGTQVTVSS | low polyreactivity |
| QVQLVESGGGLVQAGGSLRLSSAASGITFYVYAKGRYRQAPGKERELVAAISGSGGNTYYADSVKGRFTISRDNAKNTVYLQMNSLKPEDTPVYYFNADDHSPYYGDLDYWGQGTQVSVSS | low polyreactivity |
| QVQLVESGGGLVQAGGSLRLSCAASGFIFDYYAMGWYRPAPAKERELVAAISCRGGTTYYADSVKGRFTISRDNAKNTVYLQMNSLKPEDTAVYYCAAGRFYGFGYGYWGQGTQVTVSS | high polyreactivity |
| QVQLVESGGGLVQAGGSLRLSCAASGFIFRYYAMGRYRQAPGKERELVAAISYSGGSTYYADSVKGRFTFSRDNAKNTVYLQINSMKPEDTAVYYCAKYTTSVYKQSLQQGYDYWGQGTQVSVSS | high polyreactivity |
| QVQLVDSGGGLVQAGGTLRLSCAATGRTVSKYAMGWYRQAPGKERELVAAITRSGGRTYYADSVKGRFTISRDNAKNTVYLQMNSLKPEDTAVYYCARTTNQHTLATEDDYWGQGTQVTVSS | high polyreactivity |
| QVQLVESGGRLVKARGSLRISFADSVRTFIRNAMGWYRQAPGKERELVAAITSSGGSTYYADSVKGRFTISRDNAKITVYLQMNILKPEDTAVYYCAAVNSKRHRRYNYWGQGTQVTVSS | high polyreactivity |
| QVQLVESGGGLVQAGGSLRLSCAASGIIFRGNALGWYRPAPGKERELVAAISRSGRTNYADSVKGRFTISRDNAKNTVYLQMNSLKPEDNAVYYCAVDKRYGRVVGRDYDYWGQGTQVTVSS | high polyreactivity |
| QVQLVESGGGLVQAGGSLRLSCAASGSTFSRYAMGWYRQAPGKERELVAAISSRGGSTYYADSVKGRFTISRDNAKNTVYLQMNSLKPEDTAVYYCAARPYYYIVRGTEYDYWGQGTQVTVSS | high polyreactivity |

| Sequence | polyreactivity (PSR sort gate) |
| --- | --- |
| QVQLVESGRGLVQEGGSLRLSCAPSGSTFTSYAMGWSRQAPGKERELVAAINYSGGSTNYADSVKGRFTLSRDNAMNTVYLQMNSLKPEDTAVYYFNVVRRSPGDYSYYYWGQGTQVTVSS | low polyreactivity |
| QVQLVESGGGLVQAGGSLRLSCAASGSIFFPYAMGWYRQAPGKERELVAAISYSGTSTYYADSVKGRFTISRDNAKNTVYLQMNSLKPEDTAVYYCAAYSRYYASYDYWGQGTQVTVSS | high polyreactivity |
| QVQLVESGGGLVQAGGSLRLSCAASGRIFGVNAMGRYRQAPGKERELVAAIDWSDGSTYYADSVKGRFTISRDNAKNTVYLQMNSLKPEDTAVYYCAALPSFLAAQYGDDYWGQGTQVTVSS | low polyreactivity |
| QVQLVESGGGLVQAGGSLRLSCAASGYIFDRYAMGWYRKAPGKEREMVAPISGRGGSTYYADSVKGRFSISRDNAKNTVFLQMNSLKPEDTAVYYCARDVYVRNGQRARYVSWGQGTQVTVSS | high polyreactivity |
| QVQLVESGGGLVQAGGSLRLSCAASGSIFFPYAMGWSRQAPGKERELVAAITYGGGSTYYADSVKGRFTISRDNAKNTVYLQMNSLIPEDTAVYYCAAAVSYWRHGYQLSYDYWGQGTQVTVSS | high polyreactivity |
| QVQLVESGGGLVQAGGSLRLSCAASGSIFVLYAMGLYRQAPGTERELVAAITTGGGTNYADSVKGRFTISRDNAKNTVYLQINSLKPEDTAVYYCAADTGWYDDWTHDYWGQGTQVTVSS | low polyreactivity |
| QVQVVESGGGLVQAGGSLRLSCAASGRTFFRNAMGWYRQARGKERELVAAISKRGGSTRYADSVKGRFTISRDQAQNPDYLQMNSLKPEDTAVYYCAAASRLEYSHATLYYWGQGTQVTVSS | high polyreactivity |
| QVQLVESGGGIVQAGGSLRLSCAASGSNLQYKAMGWYRQAPGKERELVADITSSGGSTYYADSVKGRFTISRDNAKNTVYLQMNSLKPEDTAVYYFAKDTHWAYYWGQGTQVTVSS | low polyreactivity |
| QVQLVESGGGLVQAGGSLRLSCAASGSIFYENAMGWYRQAPGKERELVAAISRSGGSTYYADSVKGRFTISRDNAKNTVYLQMNSLKPEDTAVYYCAADVYVFIGDYWGQGTQVTVSS | low polyreactivity |
| QVQLVESGGGLVQAGGSLRLSCAASGSIFVRNGMGWYRQAPGKERELVASITSGTITYYADSVKGRFTISRDNAKNTVYLQMNSLKPEDTAVYYCAAYQYPADFKLYYYWGQGTQVTVSS | high polyreactivity |
| QVQLEESGGGLVQAGGSLRISCAASGFTFKYYVMGWYRQAPGKERFVAAITGSGASTYYADSVKGRFTISRDNAKNTVYLQMNSLKPEDTAVYYCNAVYYAGRYRYDYWGQGTQVTVSS | high polyreactivity |
| QVQLVESCGGLVQAGGSLRLSCAASGIIFEGNTLGWYRQAPGKEREFVAAISRNGGSTSYADSVKGRFTISRDNAKNTVYLQINSLKPEDTAVYYCAADVESFWGWRYEYWGQGTQVTVSS | low polyreactivity |
| QVQLVESGGGLVQAGGSLRLSCAASGFTFNDYAMGWYRQAPGKERELVAAISKSGSRTYYADSVKGRFTISRDNAMNTVYLQMNSLKPEDTAVYYCNALPSYYGTYDYWGQGTQVTVSS | high polyreactivity |
| QVQLVESGGGLVQAGGSLRLSCAASGSIFDENAMGWYIQAPGKERELVAAITGSGVRTYYADSVKGRFTISRDNAKTTVYLQMNSLKPEDTAVYYCAAETLGVYDYESYTYYWGQRTQVTVSS | high polyreactivity |
| QLQLVESGGGLVQAGGSLRLSCAASGSIFFSYAMGWYRQAPGKERELVAAIDYSGGGTYYADSVKGRFTISRDNAKNTVYLQMNSLKPEDTAVYYCNSDTEVWADTFISYRALNYWGQGTQVTVSS | low polyreactivity |
| QVQLVESGGGLVQEGGSLRLSCAASGSTFHDNAMGWYRQAPGKERELVASITGSSGSTYYADSVKGRFTISRDNAKNTVYLQMNSLKPEDTAVYYCADEGSRWYYFFYGGGGYWGQGTQVTVSS | low polyreactivity |
| QVQLVESGGGLVQAGGSLRLSCAASGRIFGGYAMGWYRQAPGKERELVAVINGGTSTKYADSVKGRFTISRDNAKNTVYLQMNSLKPEDNAVYYCAKTRHDSLQNRNRYDYWGQGTQVTVSS | low polyreactivity |
| QVQLVESGGGLVQAGGSLRLSCAASGRTLTFYAMGWYRQAPGTERELVAAITWRAGSTYYADSVKGRFTISRDNAKNTVYLQMNSMKPEDTAVYYCAREPYSASHVYGLYRGYDYWGQGTQVTVSS | low polyreactivity |
| QVQLVESGGGLVQAGGSLRLSCAASGRIFNQYAMGWYRQAPGKERELVAAISRRGGSTYYADSVKGRFTISRDNAKNTVYLQMNSLKPEDTAVYYCAAVGGYASYFHLYYYWGQGSQVTVSS | high polyreactivity |
| QVQLVESGGGLVQAGGSLRLSCAASGFIIRKYAMGWYRPAPGKEWELVAAISGRADSTYYADSVKGRFTISRDNAKNTVYLQMNSLKPDDTAVYYCAAYWHSKIGKGYDYWGQGTQVTVSS | high polyreactivity |
| QVQLVESGGGLVQAGGILRLSCAASGSTFVPNTMAWYRQAPGKERELVAAITYSGGSTYYADSVKGRFTISRDNAKNTVYLQMNSLKPEDTAVYYCAAEGTTWYYDMDYWGQGTQVTVSS | low polyreactivity |
